Molecular target: T1, ErdR (CrbR), 6His-ErdR (Pseudomonas putida KT2440) (UniProt Q88MD8)
T1 sequence: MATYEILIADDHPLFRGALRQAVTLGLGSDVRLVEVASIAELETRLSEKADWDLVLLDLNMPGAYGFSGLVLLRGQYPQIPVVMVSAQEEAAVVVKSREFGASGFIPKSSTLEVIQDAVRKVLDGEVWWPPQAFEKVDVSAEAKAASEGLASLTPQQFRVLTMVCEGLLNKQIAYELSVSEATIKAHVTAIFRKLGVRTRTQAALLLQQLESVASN
Assay: EMSA
Conditions: 10 mM Tris-HCl pH 8, 2 mM MgCl2, 1 mM DTT, 10% glycerol, 12 ng/uL sheared salmon sperm DNA, 2 mM acetyl phosphate when needed; 2.5 ng DNA in 10 uL, 20 min at …

Row | Sequence | binding | binding signal
1 | AGCAACGGCAAGGCGATTAACAACTGGTAACAGCCCCCACGAAGGCAAGCGTTAATCTCCATCTAATCCCGATAGTTAAAACTAGCAATACTCGCGGCGCCATAAGCGCCGCGTGCCCCCTCACGACCTTAGACAGGTAA (double strand) [acsA-I (2) promoter] | no binding | 
2 | CGCGAACGGGTCATCACTTTGTTACGCAATCGGTAAAACACCGTTGCATCTAAGACTAAGGTCGTCTGGTTGGCGTCCATCGGCAGCATAAAGTAAGGGTGTGGGTTCCATCCCGTATCTGTGCTGCTAGGACAAAAACA (double strand) [yjcH (actP-I) promoter] | binds | 
3 | AATCGCCTTGCCGTTGCTGGCGAGGTGAATTTTATGGCGCTGGCCAAGGCCGAAACAGTGGGTGTTTTGATAAAGTGTTTTGACAGAATCTGTAACAATCCTGTGGCAAACCCCTCGTTTTTTCGTCGGCAAGGCTGTAA (double strand) [acsA-I (1) promoter] | no binding | 
4 | TAGGCGTCCTTTTTGCTCATGAAACTGACCGTATCGCTATGCCGAACTATATATATCTATATATAGGTACCGGCCATGTTGTTCTCTGCCTCCATGGTCGGCTTGCGGCGGGGTGGTGCCCATTGGACGTAAGTCTATGA (double strand) [pp_0354 promoter] | binds | binds

From paper PMC8402216
